Substitutions are numbered along the chain they refer to.
B1: FX-76-1-m3 (antibody, V domains shown)
VH: QVQLLETGGGLVKPGQSLKLSCAASGFTFTSFAMHWVRQPPGKGLEWVAVVSYDGNYKYYADSVQGRFTISRDNSKNTLYLQMNSLRAEDTAVYYCAKDSRRRSLLYFEWLSQGYFNPWGQGTTLTVSS
VL: DIQMTQSPSSLSASVGDRVTITCRSSQSITFDYKNYLAWYQQKPGKAPKLLIYWGSYLESGVPSRFSGSGSGTDFTLTISSLQPEDFATYYCQQHYRTPPSFGQGTKVEIK
B2: FX-5-6-m3 (antibody, V domains shown)
VH: QVQLVESGGGVVQPGRSLRLSCAASGFTFSTYAMHWVRQAPGKGLEWVCVISYDANYKYYADSVKGRFTCSRDNSKNTLYLQMNSLRAEDTAVYYCARDSRLRSLLYFEWLSQGYFDYWGQGTLVTVSS
VL: EIVMTQSPATLSVSPGERATLSCRSSQSITFDYKNYLAWYQQKPGQAPRLLIYWGSTRATGIPARFSGSGSGTEFTLTISSLQSEDFAVYYCQQHYRTPPSFGQGTKVEIK
B3: FX-10-6-m3 (antibody, V domains shown)
VH: QVQLVQSGAEVKKPGSSVKVSCKASGFTFSTYAIHWVRQAPGQGLEWMGVISYDANYKYYAQKFQGRVTITRDNSKSTAYMELSSLRSEDTAVYYCARDSRLRSLLYFEWLSQGYFDYWGQGTTLTVSS
VL: B2 VL
B4: FX-7-6-m3 (antibody, V domains shown)
VH: EVQLLESGGGLVQPGGSLRLSCAASGFTFSSYAMHWVRQAPGKGLEWVSVISYDANYKYYADSVKGRFTISRDNSKNTLYLQMNSLRAEDTAVYYCAKDSQLRSLLYFEWLSQGYFDYWGQGTTLTVSS
VL: B2 VL
B5: FX-3-6-m3 (antibody, V domains shown)
VH: B2 VH with C49A, C70I, R98K, R101Q
VL: B2 VL
B6: FX-10-2-m3 (antibody, V domains shown)
VH: B3 VH
VL: B1 VL with Y57S, E59Q
B7: FX-4-2-m3 (antibody, V domains shown)
VH: B2 VH with T28D, C49A, C70I
VL: B1 VL with Y57S, E59Q
B8: FX-3-3-m3 (antibody, V domains shown)
VH: B2 VH with C49A, C70I, R98K, R101Q
VL: B1 VL with W54A, G55A, Y57S, E59Q
B9: FX-6-2-m3 (antibody, V domains shown)
VH: B2 VH with S30D, C49A, C70I
VL: B1 VL with Y57S, E59Q
B10: FX-12-2-m3 (antibody, V domains shown)
VH: B3 VH with S16A, H35N, P41T, I70M, N74T, K76I, R101Q
VL: B1 VL with Y57S, E59Q
B11: FX-3-2-m3 (antibody, V domains shown)
VH: B2 VH with C49A, C70I, R98K, R101Q
VL: B1 VL with Y57S, E59Q
B12: FX-5-2-m3 (antibody, V domains shown)
VH: B2 VH
VL: B1 VL with Y57S, E59Q

The binders below were run against H1 HA (strain not stated) (influenza A virus H1) (assay: HA binding EC50; column head not printed: H1 HA and pM inferred).

B1 gave an EC50 of 3.8 pM.

The binders below were run against polyclonal human IgG (assay: BLI (Octet) polyreactivity).

Going from B2 to B3, the poly reactivity octet max binding response (nm) falls from 1.13 nm to 0.862 nm.

Compared with B4, B5 is higher in poly reactivity octet max binding response (nm): 0.703 nm for the first, 0.774 nm for the second.

Compared with B6, B7 is higher in poly reactivity octet max binding response (nm): 0.681 nm for the first, 0.758 nm for the second.

Going from B8 to B9, the poly reactivity octet max binding response (nm) rises from 0.485 nm to 0.798 nm.

First: B10
Second: B11
The poly reactivity octet max binding response (nm) of the first is lower: 0.391 nm for the first, 0.521 nm for the second.

B12 was tested, and the poly reactivity octet max binding response (nm) was 0.992 nm.

— patent US20230257449A1
